Data on 6 substances can be found in PMC2830194.

In general, stoichiometry N refers to a count of units in the complex or per binding partner.

Assay [1] addresses FlhA (Cpn0363), putative flagellar integral membrane protein, full length, bacterial-2-hybrid fusion (C. pneumoniae). Kind of assay: two-hybrid; bacterial-2-hybrid in E. coli DHP-1, proteins fused to adenylate cyclase fragments from pT18 and pT25; β-galactosidase activity, in triplicate; cut off for a positive interaction 577 units (table footnote; 677 in the methods).
The target in assay [2] is CdsL, putative T3S ATPase tethering protein, bacterial-2-hybrid fusion (C. pneumoniae). The description is as above.
In assay [3] the target is CopN, putative T3S plug protein, bacterial-2-hybrid fusion (C. pneumoniae). In words: two-hybrid.
Assay [4] has as its target Full length His-Cpn0859 (C. pneumoniae). In words: cross-linking.
Assay [5] has as its target CdsD-FHA-2, bacterial-2-hybrid fusion (positive control) (C. pneumoniae). Kind of assay: two-hybrid; bacterial-2-hybrid in E. coli DHP-1, proteins fused to adenylate cyclase fragments from pT18 and pT25; β-galactosidase activity, in triplicate; cut off for a positive interaction 577 units (table footnote; 677 in the methods).

“CdsL, putative T3S ATPase tethering protein, bacterial-2-hybrid fusion (natural protein)”: the β-galactosidase activity (units/mg bacteria) in assay [1] came to 832.

Turning to “Cpn0322 (putative CdsU, YscU ortholog), bacterial-2-hybrid fusion (natural protein)”, in assay [1], the β-galactosidase activity (units/mg bacteria) worked out at 780.

Substance “FliF (Cpn0860), putative flagellar MS ring protein, full length, bacterial-2-hybrid fusion (natural protein)” came in with a β-galactosidase activity (units/mg bacteria) in assay [1] of 847.

As for “FliI (Cpn0858), putative flagellar ATPase, bacterial-2-hybrid fusion (enzyme)”, the β-galactosidase activity (units/mg bacteria) in assay [2] stood at 874; in assay [1], 943; in assay [3], 943.

“Full length His-Cpn0859 (natural protein)” displayed a stoichiometry N in assay [4] of 2.

Regarding “PknD, bacterial-2-hybrid fusion (positive control) (natural protein)”, in assay [5], the β-galactosidase activity (units/mg bacteria) was found to be 996.
